In patent publication US20190290692A1 (MINERVA BIOTECHNOLOGIES, published 2019):

B6: PSMGFR minus 10 amino acids from the C-terminus (peptide)
peptide: GTINVHDVETQFNQYKTEAASRYNLTISDVSVSDV
notes: also called C-10; C-10 PSMGFR

How the values were obtained:
[1] = target: T1, PSMGFR peptide (Primary Sequence of the MUC1 Growth Factor Receptor); assay: ELISA, PSMGFR on surface (FIG. 12)
T1 construct: Immobilised on ELISA plates or attached to 1 um or 4.5 um beads; also called MUC1* peptide; MUC1* PSMGFR peptide
T1 peptide: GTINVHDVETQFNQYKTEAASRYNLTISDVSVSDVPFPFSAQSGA

[2] = target: T1, PSMGFR peptide (Primary Sequence of the …); assay: ELISA, surface coated with PSMGFR peptide
Procedure: Humanized MN-C2 scFv is then incubated with the surface, washed and detected according to standard methods.

[3] = target: T2, PSMGFR minus 10 amino acids from the N-terminus; assay: competitive ELISA, peptide on plate (FIG. 3C)
T2 construct: also called N-10; N-10 PSMGFR
T2 peptide: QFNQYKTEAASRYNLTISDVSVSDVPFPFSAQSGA
Procedure: FIGS. 3A-3C show results of competitive ELISA assays. The PSMGFR MUC1* peptide is immobilized on the plate and dimeric NM23-H1, aka NME1, is added either alone or after the MN-E6 antibody has been added (A). The same experiment was performed wherein NM23-H7, NME7-AB, is added alone or after MN-E6 has been added (B). […] In a similar experiment (C), PSMGFR or PSMGFR minus 10 amino acids from the N-terminus, aka N-10, is immobilized on the plate. Dimeric NM23-H1 is then added. Anti-MUC1* antibodies MN-E6, MN-C2, MN-C3 or MN-C8 are then tested for their ability to compete off the NM23-H1.

[4] = target: T1, PSMGFR peptide (Primary Sequence of the …); assay: ELISA, peptide immobilised on plate (FIG. 22A)
Procedure: (§1) FIGS. 22A-22C show graphs of ELISAs wherein the assay plate surface was immobilized with either PSMGFR peptide, PSMGFR minus 10 amino acids from the N-terminus or minus 10 amino acids from the C-terminus. The MN-C3 antibody variants were then assayed for binding to the various MUC1* peptides. A) Purified mouse monoclonal MN-C3 antibody; B) Impure humanized MN-C3 antibody; and C) the humanized MN-C3 scFv-Fc. ELISAs show binding to the PSMGFR peptide as well as to certain deletion peptides.

[5] = target: B6; assay: ELISA, N-10 and C-10 peptides on plate (FIG. 2E)
Procedure: (§2) FIGS. 2A-2F show results of ELISA assays. MUC1* peptides PSMGFR, PSMGFR minus 10 amino acids from the N-terminus aka N-10, or PSMGFR minus 10 amino acids from the C-terminus, aka C-10 are immobilized on the plate and the following are assayed for binding: NME7-AB (A), MN-C2 monoclonal antibody (B), MN-E6 monoclonal antibody (C), or dimeric NME1 (D). […] MUC1* peptides PSMGFR minus 10 amino acids from the N-terminus aka N-10, or PSMGFR minus 10 amino acids from the C-terminus, aka C-10, are immobilized on the plate and the following are assayed for binding: MN-C3 (E) and MN-C8 (F).

[6] = target: T2, PSMGFR minus 10 amino acids from the …; assay: selection screens
[7] = target: T1, PSMGFR peptide (Primary Sequence of the …); assay: ELISA, peptide on plate (FIG. 2C)
Procedure: as §2

[8] = target: T1, PSMGFR peptide (Primary Sequence of the …); assay: ELISA, peptide on plate (FIG. 2B)
Procedure: as §2

[9] = target: T3, NME7-AB (human, UniProt Q9Y5B8 92-376); assay: ELISA, peptide immobilised on plate (FIG. 2A)
T3 construct: also called NM23-H7
T3 sequence: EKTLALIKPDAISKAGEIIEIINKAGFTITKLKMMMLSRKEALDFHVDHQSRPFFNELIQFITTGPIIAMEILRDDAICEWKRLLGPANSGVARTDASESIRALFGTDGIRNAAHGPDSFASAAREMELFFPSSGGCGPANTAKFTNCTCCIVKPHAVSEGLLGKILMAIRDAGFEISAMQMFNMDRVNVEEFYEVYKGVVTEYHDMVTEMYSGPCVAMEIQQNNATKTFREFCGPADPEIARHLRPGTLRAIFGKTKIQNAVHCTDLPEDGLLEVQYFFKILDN
Procedure: as §2

[10] = target: T4, dimeric NME1 (human, UniProt P15531 1-152, limits assumed); assay: ELISA, peptide immobilised on plate (FIG. 2D)
T4 construct: Used in dimer form; also called NM23-H1 dimers; dimeric NM23-H1
Procedure: as §2

[11] = target: T1, PSMGFR peptide (Primary Sequence of the …); assay: ELISA, peptide immobilised on plate (FIG. 22B)
Procedure: as §1

T4 sequence (P15531 whole entry): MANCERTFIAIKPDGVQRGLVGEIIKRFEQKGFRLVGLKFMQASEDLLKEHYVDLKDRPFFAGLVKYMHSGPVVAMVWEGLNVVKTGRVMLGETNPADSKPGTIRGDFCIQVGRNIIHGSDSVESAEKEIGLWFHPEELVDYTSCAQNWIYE

B1: humanized MN-E6 scFv (scFv, V domains shown, not shown: small tags and cut ends)
VH: EVQLVESGGGLVKPGGSLRLSCAASGFTFSRYGMSWVRQAPGKRLEWVSTISGGGTYIYYPDSVKGRFTISRDNAKNTLYLQMNSLRAEDTAVYYCTRDNYGRNYDYGMDYWGQGTLVTVSS
VL: EIVLTQSPATLSLSPGERATLTCSATSSVSYIHWYQQRPGQSPRLLIYSTSNLASGIPARFSGSGSGSDYTLTISSLEPEDFAVYYCQQRSSSPFTFGSGTKVEIK
notes: also called hu MN-E6 scFv
B1: binds [1].

B2: humanized MN-C2 scFv (scFv, V domains shown, not shown: small tags and cut ends)
VH: EVQLVESGGGLVKPGGSLRLSCAASGFTFSGYAMSWVRQAPGKGLEWVSTISSGGTYIYYPDSVKGRFTISRDNAKNSLYLQMNSLRAEDTAVYYCARLGGDNYYEYFDVWGKGTTVTVSS
VL: DIVLTQSPASLAVSPGQRATITCRASKSVSTSGYSYMHWYQQKPGQPPKLLIYLASNLESGVPARFSGSGSGTDFTLTINPVEANDTANYYCQHSRELPFTFGGGTKVEIKR
notes: also called huMN-C2 scFv; hMN-C2 scFv
Binder B2 has an EC50 [2] of about 333 nM.

B3: mouse monoclonal antibody MN-C3 (antibody, V domains shown)
VH: QVQLQQSGPELVRPGVSVKISCKGSGYRFTDYAMNWVKQSHAKSLEWIGVISTFSGNTNFNQKFKGKATMTVDKSSSTAYMELARLTSEDSAMYYCARSDYYGPYFDYWGQGTTLTVSS
VL: DVLMTQTPLSLPVSLGDQASISCRSSQTIVHSNGNTYLEWYLQKPGQSPKLLIYKVSNRFSGVPDRFSGSGSGTDFTLKINRVEAEDLGVYYCFQGSHVPFTFGSGTKLEIK
notes: also called Min-C3
B3: binds [3]; binds [4]; binds [5].

B4: mouse monoclonal antibody MN-E6 (antibody, V domains shown)
VH: EVKVVESGGDLVKPGGSLKLSCVVSGFTFSRYGMSWVRQTPGKRLEWVATISGGGTYIYYPDSVKGRFTISRDNAKNTLYLQMSSLKSEDTAMYHCTRDNYGRNYDYGMDYWGQGTSVTVSS
VL: QIVLTQSPAIMSASPGEEVTLTCSATSSVSYIHWFQQRPGTSPKLWIYSTSNLASGVPVRFSGSGYGTSYSLTISRMEAEDAATYYCQQRSSSPFTFGSGTKLEIK
notes: also called Min-E6; parent MN-E6 antibody
B4: binds [6]; binds [7].

B5: mouse monoclonal antibody MN-C2 (antibody, V domains shown)
VH: EVQLEESGGGLVKPGGSLKLSCAASGFTFSGYAMSWVRQTPEKRLEWVATISSGGTYIYYPDSVKGRFTISRDNAKNTLYLQMSSLRSEDTAMYYCARLGGDNYYEYFDVWGAGTTVTVSS
VL: DIVITQSTASLGVSLGQRATISCRASKSVSTSGYSYMHWYQQRPGQPPKLLIYLASNLESGVPARFSGSGSGTDFTLNIHPVEEEDAATYYCQHSRELPFTFGGGTKLEIKR
notes: also called Min-C2
B5: binds [8]; binds [3].

B6: no binding [9]; no binding [10].

B7: humanized MN-C3 antibody (impure preparation) (antibody, V domains shown)
VH: QVQLVQSGAEVKKPGASVKVSCKASGYTFTDYAMNWVRQAPGQGLEWMGVISTFSGNTNFNQKFKGRVTMTTDTSTSTAYMELRSLRSDDTAVYYCARSDYYGPYFDYWGQGTTLTVSS
VL: DIVMTQTPLSLSVTPGQPASISCRSSQTIVHSNGNTYLEWYLQKPGQSPQLLIYKVSNRFSGVPDRFSGSGSGTDFTLKISRVEAEDVGVYYCFQGSHVPFTFGGGTKVEIKR
notes: also called Impure humanized MN-C3 antibody
B7: binds [11].
